Protein stability index data for 25 sequences are collected here from the supplement of paper PMC9732359.

The nature of this series: protein stability index of a GFP-peptide fusion (yeast GPS) (PSI 1-4); higher = more stable; sorted into four equal gates, so the index is relative within each strain. The gist of the method:
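Mid-log yeast cultures in leucine-free medium, carrying a pooled plasmid library, were sorted into four equal gates by their GFP/Cherry fluorescence ratio. Each plasmid expressed Cherry along with GFP fused upstream of a tiled 17-residue yeast protein peptide. Plasmids recovered from each gate were PCR-amplified and Illumina-sequenced, with reads assigned to strains by barcodes. The protein stability index was obtained by summing each gate's read frequency weighted by its gate number.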

± gives the uncertainty stated by the source.

Regarding QLRKEIQLLDENVGTRL [MED11], the protein stability index runs as follows: (pdr5∆) 3.09 ± 0.19; (san1∆) 3.57 ± 0.11.

Consider QLSNWQKIRNSEGISEA [ITC1], for which the protein stability index by setting is: (doa10∆) 2.94 ± 0.06; (pdr5∆) 2.96 ± 0.083; (san1∆) 2.97 ± 0.065; (ubr1∆) 2.8 ± 0.073.

Take QLYFKKKVNYKVTSYDI [ISW2]: the protein stability index stood at 2.63 ± 0.058 (doa10∆), 2.56 ± 0.052 (pdr5∆), 2.7 ± 0.07 (san1∆) and 2.72 ± 0.047 (ubr1∆).

On to QMLIQGVWDVDNPLRQI [BRR2], for which the protein stability index worked out at 3.54 ± 0.13 (doa10∆), 3.26 ± 0.19 (pdr5∆), 3.47 ± 0.091 (san1∆) and 2.78 ± 0.14 (ubr1∆).

Turning to QMQQQQQAQAQAQAQAQ [GAL11], the protein stability index is, setting by setting: (doa10∆) 2.1 ± 0.074; (pdr5∆) 2.08 ± 0.053; (san1∆) 2.19 ± 0.059; (ubr1∆) 1.97 ± 0.057.

For the sequence QNDILQESFINTMSAWV [FAS2], the protein stability index is, setting by setting: (doa10∆) 2.14 ± 0.089; (pdr5∆) 2.54 ± 0.19; (san1∆) 2.55 ± 0.074; (ubr1∆) 2.28 ± 0.086.

As to QNIAQSSNQSAPVETKK [HRT1], the protein stability index (doa10∆) turned out to be 3.01 ± 0.11, the protein stability index (pdr5∆) was found to be 2.91 ± 0.14, the protein stability index (san1∆) was determined as 3.47 ± 0.15 and the protein stability index (ubr1∆) was 3.16 ± 0.067.

Regarding QNNSTGSSSIIYYDSYI [SSN2], the protein stability index was found to be 2.63 ± 0.095 (doa10∆), 2.8 ± 0.1 (pdr5∆), 2.79 ± 0.056 (san1∆) and 2.81 ± 0.081 (ubr1∆).

Take QNRPYNHPELQGITRNV [RPC17]: the protein stability index reads like this: (doa10∆) 2.06 ± 0.046; (pdr5∆) 2.38 ± 0.078; (san1∆) 2.03 ± 0.087; (ubr1∆) 2.17 ± 0.049.

On to QNSANNNSDDEDVDDEE [IRR1], for which the protein stability index was 3.28 ± 0.14 (doa10∆), 3.22 ± 0.15 (pdr5∆), 3.62 ± 0.087 (san1∆) and 3.34 ± 0.1 (ubr1∆).

Regarding QNSLLTNTHPNFLSKIR [SNF2], the protein stability index by setting is: (doa10∆) 2.96 ± 0.073; (pdr5∆) 2.92 ± 0.075; (san1∆) 3.01 ± 0.07; (ubr1∆) 2.94 ± 0.047.

Regarding QPSQQPQQAQQQPNPLH [GAL11], the protein stability index (doa10∆) is 2.91 ± 0.05, the protein stability index (pdr5∆) is 2.95 ± 0.037, the protein stability index (san1∆) came out at 2.85 ± 0.035 and the protein stability index (ubr1∆) is 2.97 ± 0.034.

QPVNFNRSWDHAYNITF [RPO31] came in with a protein stability index (doa10∆) of 2.13 ± 0.12, a protein stability index (pdr5∆) of 2.37 ± 0.055, a protein stability index (san1∆) of 2.39 ± 0.12 and a protein stability index (ubr1∆) of 2.45 ± 0.047.

Turning to QQMHEVRKELRGRAVVL [RPP0], the protein stability index worked out at 3.01 ± 0.14 (doa10∆), 3.05 ± 0.13 (pdr5∆), 3.27 ± 0.099 (san1∆) and 2.58 ± 0.073 (ubr1∆).

Take QQQQQFRHHVQIQQQQQ [SNF5]: the protein stability index by setting is: (doa10∆) 1.3 ± 0.033; (pdr5∆) 1.76 ± 0.036; (san1∆) 1.45 ± 0.086; (ubr1∆) 1.32 ± 0.025.

QQQQQHQQQQQQQQQQQ [SNF5]: the protein stability index runs as follows: (doa10∆) 2.73 ± 0.04; (pdr5∆) 2.89 ± 0.05; (san1∆) 2.94 ± 0.043; (ubr1∆) 2.97 ± 0.044.

Regarding QQQQQQQQQQQQQQQQH [GAL11], the protein stability index (doa10∆) amounted to 2.68 ± 0.033, the protein stability index (pdr5∆) is 2.8 ± 0.029, the protein stability index (san1∆) is 2.698 ± 0.025 and the protein stability index (ubr1∆) came to 2.878 ± 0.024.

With QQQQQQQQRRQLTPQQQ [GAL11], the protein stability index came to 2.764 ± 0.025 (doa10∆), 2.826 ± 0.025 (pdr5∆), 2.877 ± 0.02 (san1∆) and 2.833 ± 0.022 (ubr1∆).

Consider QQQSSQNTVPNVLNQIN [GAL11], for which the protein stability index worked out at 1.66 ± 0.063 (doa10∆), 1.82 ± 0.053 (pdr5∆), 1.71 ± 0.078 (san1∆) and 2.01 ± 0.042 (ubr1∆).

In the case of QQRIVSAYEASMVYSNV [RRP4], the protein stability index (doa10∆) was found to be 2.32 ± 0.062, the protein stability index (pdr5∆) turned out to be 2.62 ± 0.05, the protein stability index (san1∆) is 2.62 ± 0.045 and the protein stability index (ubr1∆) came to 2.33 ± 0.046.

As for QQSNKLHCCIQLLMGDI [RPN3], the protein stability index is, setting by setting: (doa10∆) 1.72 ± 0.045; (pdr5∆) 1.99 ± 0.068; (san1∆) 2 ± 0.064; (ubr1∆) 1.84 ± 0.054.

Turning to QQTEHETEIKDLTQLLE [SMC4], the protein stability index reads like this: (doa10∆) 3.44 ± 0.083; (pdr5∆) 3.26 ± 0.048; (san1∆) 3.31 ± 0.045; (ubr1∆) 3.34 ± 0.046.

Take QRARDQDSIDISIKDNK [GAL11]: the protein stability index (doa10∆) is 3.25 ± 0.1, the protein stability index (pdr5∆) was 3.12 ± 0.12, the protein stability index (san1∆) came out at 3.31 ± 0.086 and the protein stability index (ubr1∆) was 3.13 ± 0.086.

With QRCKSNAISLQLKYDTS [YIL149C/MLP2], the protein stability index reads like this: (doa10∆) 1.78 ± 0.062; (pdr5∆) 1.66 ± 0.054; (san1∆) 1.86 ± 0.12; (ubr1∆) 1.79 ± 0.047.

Consider QRDFRKHGAVHLSTYLK [RPL21A], for which the protein stability index is, setting by setting: (doa10∆) 2.6 ± 0.046; (pdr5∆) 2.41 ± 0.042; (san1∆) 2.48 ± 0.054; (ubr1∆) 2.71 ± 0.036.
